Data as given in CN111956606A (JIANGSU QUANXIN BIOMEDICAL CO LTD, dated 2020).

T1: 人白介素23(Human interleukin 23，hIL-23) (human, UniProt Q9NPF7 20-189; P29460 23-328)
T1 sequence 1: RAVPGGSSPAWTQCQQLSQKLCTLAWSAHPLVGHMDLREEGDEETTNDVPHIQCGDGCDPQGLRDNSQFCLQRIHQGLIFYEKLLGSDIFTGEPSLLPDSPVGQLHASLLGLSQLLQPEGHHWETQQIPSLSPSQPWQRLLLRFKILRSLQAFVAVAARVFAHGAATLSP
T1 sequence 2: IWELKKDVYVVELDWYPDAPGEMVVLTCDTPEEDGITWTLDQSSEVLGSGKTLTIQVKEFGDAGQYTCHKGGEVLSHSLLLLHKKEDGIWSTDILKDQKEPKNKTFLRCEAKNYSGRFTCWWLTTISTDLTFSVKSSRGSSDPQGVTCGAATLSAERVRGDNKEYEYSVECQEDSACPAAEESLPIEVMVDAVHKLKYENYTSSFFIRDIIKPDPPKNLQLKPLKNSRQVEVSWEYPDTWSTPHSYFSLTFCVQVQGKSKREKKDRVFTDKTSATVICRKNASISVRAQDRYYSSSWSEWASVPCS


Experiments:
[1] = biological target: T1, 人白介素23(Human interleukin 23，hIL-23); test: cell-based or functional assay
[2] = biological target: T1, 人白介素23(Human interleukin 23，hIL-23); test: SPR, Biacore T200, antibody captured on Protein A chip, IL-23 as analyte, 25℃, 1:1 model

Binder	抑制IL-23诱导的HEK Blue TM IL-23细胞中STAT3磷酸化活性 IC50 [1]	抑制IL-23诱导的人NK细胞释放IFN-γ活性 IC50 [1]	抑制IL-23诱导的小鼠脾脏细胞释放IL-17A活性 IC50 [1]	Kd [2]	koff [2]	kon [2]
抗人白介素23单克隆抗体QX004N(HZD90-32) (antibody, human IgG1, kappa, V domains shown) VH: EVQLVESGGGLVQPGGSLRLSCAASGFSLSNHEMSWVRQAPGKGLEWIGIITTSDTTYYATWAKGRFTISRDNSKNTLYLQMNSLRAEDTAVYYCARVDIVLLSVTSRIWGQGTLVTVSS VL: DVVMTQSPSSLSASVGDRVTITCQASQSVSTYLSWYQQKPGKAPKLLIYGASNLESGVPSRFSGSGSGTDFTLTISSLQPEDFATYYCQSGYVFAGLTFGGGTKVEIKR	0.00321 µg/mL	0.0104 µg/mL	0.0117 µg/mL	0.101 nM	3.5e-05 s⁻¹	366000 M⁻¹ s⁻¹
Risankizumab (antibody, V domains shown) VH: QVQLVQSGAEVKKPGSSVKVSCKASGYTFTDQTIHWMRQAPGQGLEWIGYIYPRDDSPKYNENFKGKVTITADKSTSTAYMELSSLRSEDTAVYYCAIPDRSGYAWFIYWGQGTLVTVSS VL: DIQMTQSPSSLSASVGDRVTITCKASRDVAIAVAWYQQKPGKVPKLLIYWASTRHTGVPSRFSGSGSRTDFTLTISSLQPEDVADYFCHQYSSYPFTFGSGTKLEIKR	0.00351 µg/mL	0.0111 µg/mL	0.00843 µg/mL	0.052 nM	3.7e-05 s⁻¹	706000 M⁻¹ s⁻¹
Guselkumab (antibody, V domains shown) VH: EVQLVQSGAEVKKPGESLKISCKGSGYSFSNYWIGWVRQMPGKGLEWMGIIDPSNSYTRYSPSFQGQVTISADKSISTAYLQWSSLKASDTAMYYCARWYYKPFDVWGQGTLVTVSS VL: QSVLTQPPSVSGAPGQRVTISCTGSSSNIGSGYDVHWYQQLPGTAPKLLIYGNSKRPSGVPDRFSGSKSGTSASLAITGLQSEDEADYYCASWTDGLSLVVFGGGTKLTVLG	–	0.0168 µg/mL	0.0135 µg/mL	0.063 nM	–	–
